Experimental data published in patent US20220242958A1, “BISPECIFIC NANOBODIES” (Ablynx N.V., priority 2013, published 2022).
“Also recorded” adds a separate entry of the source.

Columns and labels:
[1] = molecular target: T1, CXCR4 on Jurkat E6-1 cells (Homo sapiens, UniProt P61073); assay: CXCL12/SDF-1a induced chemotaxis of Jurkat E6-1 cells; format: cell-based; details: monovalent CXCR4 Nanobodies, Table 4; read-out: Chemotaxis Jurkat IC50
T1 construct: endogenous in cells; host or cells: Jurkat E6-1
Protocol: To verify if bispecific CXCR4-IL3Ra polypeptides show increased affinity and potency on cells expressing both receptors, a CXCR4-dependent functional assay was carried out. To this end SDF-1a dependent chemotaxis on Jurkat E6-1 (CXCR4+/IL3Ra−), and MOLM-13 cells (CXCR4+/IL3Ra+) was performed for direct comparison of cells expressing both or only one receptor. Since the functional blockade is only mediated via CXCR4, avidity by the simultaneous binding of the anti-IL3Ra Nanobody® is expected to translate into increased potency in inhibition of chemotaxis.
Bispecific polypeptides were analyzed for inhibition of CXCL12-induced chemotaxis on cells endogenously expressing CXCR4. As chemoattractant a concentration of 750 pM SDF-1a was used on 100,000 cells/well for the Jurkat cell line, and 500,000 cells/well for the MOLM-13 cell line. On each plate the corresponding monovalent CXCR4 Nanobody was included as reference, allowing to calculate the fold increase of the bispecific within each plate. As additional control 1:1 mixtures of monovalent Nanobodies were included. In Table 9 the respective IC50 values are shown (average of n=3 experiments).
To verify if bispecific CXCR4-IL-3Ra polypeptides show increased affinity and potency on cells expressing both receptors, a CXCR4-dependent functional assay was done. Since MOLM-13 cells express CD4 in conjunction with CXCR4 and CD123, the same experimental set-up was used as described for the CXCR4-CD123 bispecific Nanobodies (see: Example 1.5.5).
Dose-dependent inhibition of CXCL12-induced chemotaxis by the panel of bispecific CD4-CXCR4 Nanobodies was determined on Jurkat (CXCR4+/CD4 low), and Molm-13 cells (CXCR4++/CD4++). As reference anti-CXCR4 antibody 12G5 was included on each plate. […] Remarkably, bispecific constructs in the inverse orientation were able to block CXCR4 function, despite their reduced affinity for CXCR4 due to the unfavourable position, although the blockade was partial. The much larger potency increases observed with Nanobodies targeting the CD4 and CXCR4 combination is most likely related to the higher relative expression levels of CD4 compared to CD123 on the Molm-13 cells.

[2] = molecular target: T2, CXCR4 (membrane extracts of Hek-CXCR4 cells) (Homo sapiens, UniProt P61073); assay: [125I]-CXCL12 radio-ligand displacement on membrane extracts of Hek-CXCR4 cells; format: binding
T2 construct: expressed in transfected cells; host or cells: Hek293 (membrane extracts)
Protocol: CXCR4 Nanobodies were analysed in radio-ligand displacement assay on membrane extracts of Hek-CXCR4 cells. The advantage of using the radiolabelled ligand is the increased sensitivity, and the low competitor concentration ensures the determination of Ki values (i.e. the real affinity constant) instead of measuring the IC50 value. This makes it possible to accurately determine the potencies of low affine Nanobodies, even though they may not reach full displacement.
Non-specific binding was determined in presence of 100 nM cold SDF-1. As controls full blocking CXCR4 Nanobodies 238D4 and 281A6 were included. The assay was performed three times, and average percentages of SDF-1 inhibition were calculated.

[3] = molecular target: T3, CXCR4 on Caki-CXCR4 cells (Homo sapiens, UniProt P61073); assay: Biotinylated SDF-1 displacement on Caki-CXCR4 cells (flow cytometry); format: binding; details: 30 nM biotinylated SDF-1; read-out: Ligand competition Biotin-SDF-1 IC50
T3 construct: expressed in transfected cells; host or cells: Caki-CXCR4
Protocol: CXCR4 Nanobodies were analysed for their ability to compete with the ligand CXCL12 (or SDF-1a) for receptor binding, by displacement of biotinylated SDF-1 on Caki-CXCR4 cells in flow cytometry. To this end serial dilutions of Nanobodies were incubated with 30 nM of biotinylated SDF-1 (R&D Systems Fluorokine kit) on cells, after which ligand binding was visualised using extravidin-PE. The biotin-SDF-1 competitor concentration used in this assay was below the EC50 value obtained in dose-titration, where IC50 values should reflect the Ki.

[4] = molecular target: T3, CXCR4 on Caki-CXCR4 cells; assay: Binding of CXCR4 Nanobodies to Caki-CXCR4 cells
Her3 = Her3 (Homo sapiens, UniProt P21860); details: read-out: affinity to Her3; cited from earlier work
EGFR = EGFR (Homo sapiens, UniProt P00533); details: read-out: affinity to EGFR; cited from earlier work
[5] = test system: CD8+/CD4− gated and CD4+ gated T cells; assay: Multi-colour FACS on TH1 activated T cells gated for CD8 or CD4; format: binding, human; details: donor D838; anti-flag-APC detection
Protocol: To elucidate if CD4-IL12R bispecific polypeptides preferentially bind to the CD4+/IL12R+ TH1 cell subset within the pool of T cells, Nanobody binding was analysed to a pool of activated T cells gated for either CD8 (detected by Anti-hu CD8 PE-Cy7 conjugated monoclonal antibody (BD 557746) or CD4 (detected by Anti-hu CD4 alexa Fluor 488-conjugated polyclonal antibody (R&D FAB8165G) in a multi-colour FACS experiment. Nanobody binding to the CD8+/CD4− gated cells and to CD4+ gated cells was determined using anti-flag-APC (Prozyme PJ255) detection. In this experiment TH1 activated T cells from the same donor (D838) as shown in FIG. 3.6 were used.

cytotoxic CD8+ T cells = assay: Binding to isolated CD8+ T cells (FACS); set-up: species or system human; details: Nanobodies at 250 nM
Protocol: The pool of activated T cells comprises both CD4+ T cells and CD8+ T cells. To confirm the specificity of the anti-CD4 Nanobody and to exclude binding to CD4-negative cells, binding was assessed to cytotoxic CD8+ T cells isolated from human PBMCs using the CD8+ T Cell Isolation Kit (Miltenyi Biotech, 130-096-495), resulting in 94% purity of CD8+ cells. Binding specificity experiments were carried out using Nanobodies at 250 nM. […] Similar data were obtained for the IL12Rβ2 and IL23R Nanobodies.

[6] = molecular target: T4, recombinant human CD4 / HIV1 gp120 interaction (Homo sapiens, UniProt P01730); assay: gp120 - CD4 competition ELISA; format: binding; details: 500 nM Nanobody
T4 construct: purchased Invitrogen
Protocol: Therefore a panel of CD4 Nanobodies was analysed for the capacity to block the interaction with the viral gp120 protein. Briefly, CD4 Nanobodies were analysed for the ability to compete with gp120 protein binding to recombinant CD4 in ELISA. Briefly, plates were coated with 20 ug/mL sheep anti-gp120 antibodies. lug/mL of HIV1 gp120 protein was captured for 1 hr at room temperature. Biotinylated recombinant human CD4 (Invitrogen) at 0.5 μg/mL was pre-incubated with 500 nM anti-CD4 Nanobodies, or control antibodies mouse anti-CD4 mAb B-A1 and F5 (Diaclone) and rabbit anti-CD4 pAb (ImmunoDiagnostic Inc) for 1hr, after which mixture was transferred to the coated plates and incubated for 1 hr. Detection of bound CD4 was done with Extravidin-peroxidase conjugate. […] Characteristics of Nanobody CD4 are found in Table 2.1.

T2 sequence (P61073 whole entry): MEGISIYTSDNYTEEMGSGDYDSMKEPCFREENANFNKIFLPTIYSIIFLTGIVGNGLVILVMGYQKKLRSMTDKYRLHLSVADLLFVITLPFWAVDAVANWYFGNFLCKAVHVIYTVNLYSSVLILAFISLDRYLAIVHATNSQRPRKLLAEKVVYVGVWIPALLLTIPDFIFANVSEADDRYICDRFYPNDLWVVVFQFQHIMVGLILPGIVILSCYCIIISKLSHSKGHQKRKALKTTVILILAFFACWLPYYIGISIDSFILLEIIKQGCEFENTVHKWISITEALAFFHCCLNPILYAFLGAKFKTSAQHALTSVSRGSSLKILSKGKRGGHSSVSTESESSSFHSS
T3 sequence (P61073 whole entry): as above
T1 sequence (P61073 whole entry): as above

B1: 238D4: full blocking control CXCR4 Nanobody (protein)
VHH: EVQLMESGGGLVQAGGSLRLSCAASGRTFNNYAMGWFRRAPGKEREFVAAITRSGVRSGVSAIYGDSVKDRFTISRDNAKNTLYLQMNSLKPEDTAVYTCAASAIGSGALRRFEYDYSGQGTQVTVSS
For B1, the IC50 [1] was 7.6 nM, the “efficacy of SDF-1 displacement” value ([2]; radio-ligand displacement) was “full efficacy” and the Ki ([2]; read-out: Ligand competition [125I]-SDF-1 Ki, 75 pM [125I]-CXCL12) was 5.4 nM. For the same molecule, the IC50 [3] was 2.1 nM and the EC50 [4] was 3.4 nM.

B2: MEHD7945A: two-in-one Mab with specificity for EGFR and Her3 (antibody, chains of the INN, looked up, V domains shown)
VH: EVQLVESGGGLVQPGGSLRLSCAASGFTLSGDWIHWVRQAPGKGLEWVGEISAAGGYTDYADSVKGRFTISADTSKNTAYLQMNSLRAEDTAVYYCARESRVSFEAAMDYWGQGTLVTVSS
VL: DIQMTQSPSSLSASVGDRVTITCRASQNIATDVAWYQQKPGKAPKLLIYSASFLYSGVPSRFSGSGSGTDFTLTISSLQPEDFATYYCQQSEPEPYTFGQGTKVEIK
For B2, the Kd (Her3) is given as 0.39 nM and the Kd (EGFR) is given as 1.9 nM.

B3: CD4#8: anti-CD4 Nanobody, SEQ ID NO: 25 (protein)
VHH: EVQLVESGGGSVQPGGSLTLSCGTSGRTFNVMGWFRQAPGKEREFVAAVRWSSTGIYYTQYADSVKSRFTISRDNAKNTVYLEMNSLKPEDTAVYYCAADTYNSNPARWDGYDFRGQGTQVTVSS
In the case of B3, the “binding to CD4+ gated and CD8+ gated T cells” value [5] is reported as “strong binding to the CD4+ gated population; also recorded: only a low signal was observed to the CD8+ population”, the “binding to isolated CD8+ T cells” value (cytotoxic CD8+ T cells) is reported as “No binding” and the “inhibition of gp120 - CD4 interaction” value [6] is reported as “inhibit the interaction with gp120”.
